Data on 1 substance can be found in patent publication US20220003772A1, “METHODS OF TREATING CANCER” (priority 2018, published 2022).

The target of assay [1] is T1, BCMA (Homo sapiens, UniProt Q02223).
T1 construct: BCMA membrane expression is present on a subset of normal late-stage B cells and is universally detected on normal and malignant plasma cells; endogenous in cells; host or cells: plasma/myeloma cells of the clinical study subjects (in vivo)
T1 sequence (Q02223 1-184): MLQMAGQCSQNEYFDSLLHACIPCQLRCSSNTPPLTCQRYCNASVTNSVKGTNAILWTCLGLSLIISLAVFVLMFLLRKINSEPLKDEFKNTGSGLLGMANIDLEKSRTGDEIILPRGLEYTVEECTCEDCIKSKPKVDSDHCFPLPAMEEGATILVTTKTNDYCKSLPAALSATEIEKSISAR
The experiment in a line: Dose escalation / expansion clinical study of J6M0-MMAF: response by IMWG criteria. The conditions noted are these: expansion cohort of 35 subjects (Part2), dose 3.40 mg/kg; 21/35; 95% CI 42.1-76.1. The format is in vivo.

For assay [2], the target named is T2, free sBCMA (Homo sapiens, UniProt Q02223).
T2 construct: the extracellular portion of the BCMA receptor is cleaved from the membrane of the plasma cell surface; from tissue; host or cells: serum of clinical study subjects
T2 sequence (Q02223 1-54 limits assumed): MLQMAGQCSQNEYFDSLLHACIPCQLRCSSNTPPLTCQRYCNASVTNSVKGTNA
In words: Reduction of free sBCMA in serum after infusion (free sBCMA MSD immunoassay). The conditions noted are these: at higher dose levels. The format is in vivo. The method, then: In a dose escalation clinical study, 38 subjects were treated with J6M0-MMAF (Part1). The doses ranged from 0.03 mg/kg up to 4.60 mg/kg (0.03 mg/kg, 0.06 mg/kg, 0.12 mg/kg, 0.24 mg/kg, 0.48 mg/kg, 0.96 mg/kg, 1.92 mg/kg, 2.5 mg/kg, 3.4 mg/kg, and 4.6 mg/kg). An expansion cohort of 35 subjects followed at a dose of 3.40 mg/kg (Part2). […] Levels of circulating soluble BCMA (sBCMA) were followed during these studies. Soluble BCMA was measured in serum samples collected at pre- and post-infusion of J6M0-MMAF. Immunoassays (FIG. 1) were used to determine the levels of free sBCMA (FIG. 1a) and J6M0-MMAF-bound sBCMA (FIG. 1b).
Free sBCMA Assay Protocol (FIG. 1a) 1.1. Preparation of Anti-BCMA Antibody Coated Plates (3 μg/ml)
1. An appropriate volume (˜3 mL per plate) of capture coating antibody was prepared—anti-BCMA antibody (J6M0) at 3 μg/mL in DPBS.
2. […]
1. 1×MSD read buffer was prepared as follows:
5 mL of 4×MSD read buffer T (Meso Scale Discovery #R92TC-1) plus 15 mL of Milli-Q water.
3. […], of 1× read buffer was transferred into to each well of the assay plate.
4. The MSD assay plate was read immediately by using the MSD Sector Imager 6000 (Meso Scale Discovery).
The binding of J6M0-MMAF to sBCMA was measured by comparing the post-infusion levels of free sBCMA measured 60 minutes after the start of infusion to those found at pre-infusion. […]

With J6M0-MMAF, the “overall response rate (ORR) by IMWG criteria” value in assay [1] was 60%. Further, the “binding of sBCMA by J6M0-MMAF in patients” value in assay [2] is given as “binds a large fraction of sBCMA”.
